According to patent publication US20210324102A1 (ACROIMMUNE BIOTECH, published 2021):

Tests used:
[1] = target: T1, cynomolgus macaque CD38 on CHO cells (CHO-cynomolgus CD38) (cynomolgus macaque, UniProt Q5VAN0 1-301); experiment: flow cytometry on CHO-cynomolgus CD38 cells
T1 construct: whole, on cells; also called CHO/mkCD38; mkCD38

[2] = target: human CD38 on cells (CHO-hCD38 / wild-type, and human tumor cell lines with positive CD38 expression) (human, UniProt P28907 1-300); experiment: cell-based or functional assay
[3] = target: T2, recombinant cynomolgus macaque CD38-his protein (Sino Biological Inc.) (cynomolgus macaque, UniProt Q5VAN0 44-301, limits assumed); experiment: direct ELISA, plate coated with recombinant cynomolgus macaque CD38-his protein
T2 construct: Bought protein; also called recombinant cynomolgus macaque CD38 protein; cynomolgus macaque CD38 protein; not shown: his tag

binding result [1] | EC50 of CDC activity, Daudi target cells, 10% rabbit serum [2] | binding result [3] | Binder
binds | ~0.03 µg/mL | – | murine monoclonal antibody m29 (antibody, mouse IgG2b, V domains shown, also called mouse monoclonal antibody m29; m29 monoclonal antibody) VH: QVQLQQSVSELRSPGSSVKLSCKDFDSEVFPTSYMSWVRQKPGHGFEWIGDILPNIGRIFYGEKFEDKAKLDADTVSNTAYLELTSLSSEDSAIYYCAREAYGSILGYWGQGTLVAVSA VL: DIVMTQTPLSLPVGLGDQASISCRSSQSLLHSNGNTYLHWYLQKPGQSPKLLIYKVSNRFSGVPDRFSGSGSGTDFTLKISRVEAEDLGVYFCSQSSHLPWTFGGGTKLEIK
binds | ~0.03 µg/mL | binds | human-mouse chimeric antibody ch29G (antibody, V domains shown, not shown: human IgG1 heavy chain constant region; human kappa light chain constant region (C-domain)) VH: QVQLQQSVSELRSPGSSVKLSCKDFDSEVFPTSYMSWVRQKPGHGFEWIGDILPNIGRIFYGEKFEDKAKLDADTVSNTAYLELTSLSSEDSAIYYCAREAYGSILGYWGQGTLVAVSA VL: DIVMTQTPLSLPVGLGDQASISCRSSQSLLHSNGNTYLHWYLQKPGQSPKLLIYKVSNRFSGVPDRFSGSGSGTDFTLKISRVEAEDLGVYFCSQSSHLPWTFGGGTKLEIK
– | 0.1 µg/mL | – | Daratumumab (antibody, V domains shown) VH: EVQLLESGGGLVQPGGSLRLSCAVSGFTFNSFAMSWVRQAPGKGLEWVSAISGSGGGTYYADSVKGRFTISRDNSKNTLYLQMNSLRAEDTAVYFCAKDKILWFGEPVFDYWGQGTLVTVSS VL: not shown
